To fix the notation:
B1: TRIM43 (parent)
chain: NRFRVEISFHFEVTNHNIRLFEDV
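Also: lentivirally expressed fusions sorted by FACS into six bins by GFP to DsRed ratio, PSI derived from sequencing read proportions per bin multiplied by bin number.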

The data set covers variants of B1. Briefly: protein stability index of a GFP-peptide fusion (GPS, HEK-293T) (PSI 1-6); higher = more stable. To be noted: c terminus: a fixed tail appended.
Regarding NRFRVEISFHFEVTNHNIRLFEEV [D23E], the protein stability index came to 2.56.
Take NRFRVEISFHFEVTNHNIRLFENV [D23N]: the protein stability index was 2.91.
Take NRFRVEISFHFEVTNHNIRLFEMV [D23M]: the protein stability index amounted to 2.12.
As for NWFRVEISFHFEVTNHNIRLFEDV [R2W], the protein stability index turned out to be 2.21.
Regarding NPFRVEISFHFEVTNHNIRLFEDV [R2P], the protein stability index stood at 2.38.
As for NSFRVEISFHFEVTNHNIRLFEDV [R2S], the figure is 1.5; as for NQFRVEISFHFEVTNHNIRLFEDV [R2Q], 3.46; as for NIFRVEISFHFEVTNHNIRLFEDV [R2I], 3.39.
For the variant NDFRVEISFHFEVTNHNIRLFEDV [R2D], the protein stability index is 2.46.
As for NRFRVEISFHFEVTNHNIRLLEDV [F21L], the figure is 2.29; as for NRFRVEISFHFEVTNHNIRLPEDV [F21P], 1.76.
Consider NRFRVEISFHFEVTNHNIRLEEDV [F21E], for which the protein stability index turned out to be 2.31.
NRFRVEISFHFEVTNHNIRLWEDV [F21W]: the protein stability index amounted to 2.
On to NRFRVEISFHFEVTNHNIRLQEDV [F21Q], for which the protein stability index worked out at 3.09.
Regarding NRFRVEISFHFEVTNHNIYLFEDV [R19Y], the protein stability index is 3.54.
Turning to NRFRVEISFHFEVTNHNIDLFEDV [R19D], the protein stability index turned out to be 3.62.
Regarding NRFRVEISFHFEVTNHNIPLFEDV [R19P], the protein stability index turned out to be 1.69.
For the variant NRFRVEISFHFEVTNHNISLFEDV [R19S], the protein stability index is 3.39.
Consider NRFRVEISFHFEVTNHNIHLFEDV [R19H], for which the protein stability index amounted to 3.79.
Consider NRFRVEISFHFWVTNHNIRLFEDV [E12W], for which the protein stability index was determined as 2.64.
For the variant NRFRVEISFHFEVTNHNIRLFEDT [V24T], the protein stability index came out at 2.44.
Regarding NRFRVEISFHFEVTNHNIRLFEDH [V24H], the protein stability index is 4.23.
With NRFRVEISFHFEVTNHNIRLFEDK [V24K], the protein stability index amounted to 2.85.
On to NRFRVEISFHFEVTNHNIRLFEDF [V24F], for which the protein stability index came out at 2.43.
On to NRFRVEISFHFEVTYHNIRLFEDV [N15Y], for which the protein stability index amounted to 3.23.
On to NRFRVEISFHFEVTSHNIRLFEDV [N15S], for which the protein stability index is 2.18.
As for NRFRVEISFHFEVTLHNIRLFEDV [N15L], the figure is 3.22.
In the case of NRFRVEISFHFEVTDHNIRLFEDV [N15D], the protein stability index is 2.5.
Regarding NRFRVEISFHFEVTTHNIRLFEDV [N15T], the protein stability index worked out at 1.49.
As to NRFRVEISFHFEVTFHNIRLFEDV [N15F], the protein stability index worked out at 3.62.
As to NRFRVEISFHFEVTWHNIRLFEDV [N15W], the protein stability index is 3.34.
Turning to NRFRVEISFHFEVTPHNIRLFEDV [N15P], the protein stability index was determined as 3.72.
As for NRFRVEISFHFEVTCHNIRLFEDV [N15C], the figure is 3.41; as for NRFRVEISFHFEVTEHNIRLFEDV [N15E], 2.92.
As for NRFRVEISFHFEVTNHFIRLFEDV [N17F], the protein stability index amounted to 2.85.
As for NRFRVEISFHFEVTNHRIRLFEDV [N17R], the figure is 2.53; as for NRFRVEISFHFEVTNHCIRLFEDV [N17C], 3.65.
In the case of NRFRVEISFHFEVTNHQIRLFEDV [N17Q], the protein stability index is 3.45.
As for NRFRVEISFHFEVTNHKIRLFEDV [N17K], the figure is 2.61; as for NRFRVEISFHFEVTNHNIRLFDDV [E22D], 2.4.
Consider NRFRVEISFHFEVTNHNIRLFKDV [E22K], for which the protein stability index turned out to be 2.02.
The figure for NRFRVEISFHFEVTNHNIRLFHDV [E22H] is 3.18; for NRFRVAISFHFEVTNHNIRLFEDV [E6A] it is 2.86.
Regarding NRFRVPISFHFEVTNHNIRLFEDV [E6P], the protein stability index amounted to 2.27.
For the variant NRFRVTISFHFEVTNHNIRLFEDV [E6T], the protein stability index amounted to 4.38.
NRFRVVISFHFEVTNHNIRLFEDV [E6V]: the protein stability index came out at 3.86.
With NRFRVHISFHFEVTNHNIRLFEDV [E6H], the protein stability index is 4.48.
As to NRFRVDISFHFEVTNHNIRLFEDV [E6D], the protein stability index turned out to be 2.34.
The figure for NRFRVEISFHPEVTNHNIRLFEDV [F11P] is 1.58; for NRFRVEISFHKEVTNHNIRLFEDV [F11K] it is 1.46.
With NRFRVEISFHTEVTNHNIRLFEDV [F11T], the protein stability index was found to be 2.44.
On to NRFRVEISFHDEVTNHNIRLFEDV [F11D], for which the protein stability index was 1.27.
In the case of NRFRVEISFHSEVTNHNIRLFEDV [F11S], the protein stability index was found to be 2.74.
Regarding NRFRVEISFHFEDTNHNIRLFEDV [V13D], the protein stability index was 1.93.
With NRFRVEISFHFEHTNHNIRLFEDV [V13H], the protein stability index is 2.26.
As to NRFRVEISFHFEETNHNIRLFEDV [V13E], the protein stability index was 4.46.
As for NRFRVEISFHFEPTNHNIRLFEDV [V13P], the figure is 4.3; as for NRFRVEISFHFEVTNHNYRLFEDV [I18Y], 3.23.
In the case of NRFRVEISFHFEVTNHNQRLFEDV [I18Q], the protein stability index amounted to 3.52.
For NRFRVEISFHFEVTNHNVRLFEDV [I18V], the protein stability index turned out to be 2.97.
For the variant NRFRVEISFHFEVTNHNDRLFEDV [I18D], the protein stability index came out at 1.3.
Take NRFRVEISFHFEVTNHNKRLFEDV [I18K]: the protein stability index was determined as 1.47.
With NRFRVEISFHFEVTNHNSRLFEDV [I18S], the protein stability index amounted to 2.35.
Consider NRFRVEISFHFEVTNHNTRLFEDV [I18T], for which the protein stability index amounted to 2.09.
Regarding NRFRVEISFHFEVTNHNERLFEDV [I18E], the protein stability index is 2.9.
For the variant NRARVEISFHFEVTNHNIRLFEDV [F3A], the protein stability index amounted to 3.07.
As for NRVRVEISFHFEVTNHNIRLFEDV [F3V], the figure is 2.2; as for NRMRVEISFHFEVTNHNIRLFEDV [F3M], 2.92.
For the variant NRIRVEISFHFEVTNHNIRLFEDV [F3I], the protein stability index was found to be 2.35.
As for NRDRVEISFHFEVTNHNIRLFEDV [F3D], the figure is 3.13; as for NRFRVEISFPFEVTNHNIRLFEDV [H10P], 3.64.
The figure for NRFRVEISFQFEVTNHNIRLFEDV [H10Q] is 4.08; for NRFRVEISFHFEVTNHNIRFFEDV [L20F] it is 3.05; for NRFRVEISFHFEVTNHNIRYFEDV [L20Y] it is 2.13.
The figure for NRFRVEISAHFEVTNHNIRLFEDV [F9A] is 2.87; for NRFRVEISTHFEVTNHNIRLFEDV [F9T] it is 2.01.
On to NRFRVEISNHFEVTNHNIRLFEDV [F9N], for which the protein stability index was found to be 2.22.
NRFRVEISKHFEVTNHNIRLFEDV [F9K]: the protein stability index was 1.85.
Regarding NRFRVEISGHFEVTNHNIRLFEDV [F9G], the protein stability index stood at 2.
As for NRFRVEISRHFEVTNHNIRLFEDV [F9R], the figure is 1.76; as for NRFRVEISEHFEVTNHNIRLFEDV [F9E], 1.95.
As for NRFRVEISHHFEVTNHNIRLFEDV [F9H], the figure is 1.09; as for NRFRREISFHFEVTNHNIRLFEDV [V5R], 1.5.
The figure for NRFRDEISFHFEVTNHNIRLFEDV [V5D] is 2.08; for NRFRSEISFHFEVTNHNIRLFEDV [V5S] it is 2.08.
With NRFRWEISFHFEVTNHNIRLFEDV [V5W], the protein stability index amounted to 2.53.
In the case of NRFRNEISFHFEVTNHNIRLFEDV [V5N], the protein stability index is 2.11.
With NRFRKEISFHFEVTNHNIRLFEDV [V5K], the protein stability index was 3.27.
With NRFRVEILFHFEVTNHNIRLFEDV [S8L], the protein stability index was found to be 3.72.
For NRFRVEIMFHFEVTNHNIRLFEDV [S8M], the protein stability index came to 2.39.
On to NRFRVEIGFHFEVTNHNIRLFEDV [S8G], for which the protein stability index turned out to be 2.38.
As for NRFRVEDSFHFEVTNHNIRLFEDV [I7D], the protein stability index turned out to be 2.44.
Regarding NRFRVENSFHFEVTNHNIRLFEDV [I7N], the protein stability index was 2.06.
Take NRFRVEESFHFEVTNHNIRLFEDV [I7E]: the protein stability index is 1.91.

For the origin of these results see the supplement of paper PMC10567573.
